# Experiments:
# [1] = molecular target: T1, PCBP-2 (poly(C)-binding protein 2) (UniProt Q15366 1-365); test: ELONA-RTqPCR; Kd in range 24.1-276.5 nM, value in figure; ELONA: 100 mM HEPES pH 7.4, 100 mM NaCl, 6 mM MgCl2, 37 °C, 60 min, PCBP-2 (10 pmol) immobilized on Cu2+ plates; EMSA: 40 mM Tris-HCl pH 7.5, 250 mM NaCl, 0.1%; settings: protein: recombinant; tags: N-terminal 6xHis
# [2] = molecular target: T1, PCBP-2 (poly(C)-binding protein 2); test: ELONA-qPCR; Kd in range 8.4-89.9 nM, value in figure; ELONA: 100 mM HEPES pH 7.4, 100 mM NaCl, 6 mM MgCl2, 37 °C, 60 min, PCBP-2 (10 pmol) immobilized on Cu2+ plates; EMSA: 40 mM Tris-HCl pH 7.5, 250 mM NaCl, 0.1%; settings: protein: recombinant; tags: N-terminal 6xHis
# [3] = molecular target: T1, PCBP-2 (poly(C)-binding protein 2); test: ELONA-RTqPCR; 6 mM Mg2+; ELONA: 100 mM HEPES pH 7.4, 100 mM NaCl, 6 mM MgCl2, 37 °C, 60 min, PCBP-2 (10 pmol) immobilized on Cu2+ plates; EMSA: 40 mM Tris-HCl pH 7.5, 250 mM NaCl, 0.1%; settings: protein: recombinant; tags: N-terminal 6xHis
# [4] = molecular target: T1, PCBP-2 (poly(C)-binding protein 2); test: ELONA-RTqPCR; Kd in range 24.1-276.5 nM, value in figure; highest RNA Bmax; ELONA: 100 mM HEPES pH 7.4, 100 mM NaCl, 6 mM MgCl2, 37 °C, 60 min, PCBP-2 (10 pmol) immobilized on Cu2+ plates; EMSA: 40 mM Tris-HCl pH 7.5, 250 mM NaCl, 0.1%; settings: protein: recombinant; tags: N-terminal 6xHis
# [5] = molecular target: T1, PCBP-2 (poly(C)-binding protein 2); test: EMSA; 0.1-27.1 nM protein; two retarded complexes; ELONA: 100 mM HEPES pH 7.4, 100 mM NaCl, 6 mM MgCl2, 37 °C, 60 min, PCBP-2 (10 pmol) immobilized on Cu2+ plates; EMSA: 40 mM Tris-HCl pH 7.5, 250 mM NaCl, 0.1%; settings: protein: recombinant; tags: N-terminal 6xHis; label: 32P-CTP uniform
# [6] = molecular target: T1, PCBP-2 (poly(C)-binding protein 2); test: ELONA-qPCR; Kd in range 8.4-89.9 nM, value in figure; highest DNA Bmax; ELONA: 100 mM HEPES pH 7.4, 100 mM NaCl, 6 mM MgCl2, 37 °C, 60 min, PCBP-2 (10 pmol) immobilized on Cu2+ plates; EMSA: 40 mM Tris-HCl pH 7.5, 250 mM NaCl, 0.1%; settings: protein: recombinant; tags: N-terminal 6xHis
# [7] = molecular target: T1, PCBP-2 (poly(C)-binding protein 2); test: ELONA-qPCR; 6 mM Mg2+; ELONA: 100 mM HEPES pH 7.4, 100 mM NaCl, 6 mM MgCl2, 37 °C, 60 min, PCBP-2 (10 pmol) immobilized on Cu2+ plates; EMSA: 40 mM Tris-HCl pH 7.5, 250 mM NaCl, 0.1%; settings: protein: recombinant; tags: N-terminal 6xHis
# T1 sequence (Q15366 whole entry): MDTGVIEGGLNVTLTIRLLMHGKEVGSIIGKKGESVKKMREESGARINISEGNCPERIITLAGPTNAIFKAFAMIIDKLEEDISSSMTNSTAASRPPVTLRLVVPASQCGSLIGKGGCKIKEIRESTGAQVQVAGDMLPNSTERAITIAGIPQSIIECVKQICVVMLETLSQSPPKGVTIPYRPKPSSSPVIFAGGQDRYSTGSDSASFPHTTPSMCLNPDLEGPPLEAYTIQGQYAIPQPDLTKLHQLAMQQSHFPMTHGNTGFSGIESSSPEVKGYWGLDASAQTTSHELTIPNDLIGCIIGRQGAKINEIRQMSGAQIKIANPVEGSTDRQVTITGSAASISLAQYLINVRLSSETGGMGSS
Binder,binding result [1],binding result [2],further results
05RS10-30 (ssRNA) RNA: GGGGCGGAUCCAGACUGGUGUUUCCGCAAAGAGUGGUCUUUGUUAAUGUCAGGUUUCUUCGGCCCUAAAGACAAGCUUC,binds,,
05DS10-18 (ssDNA) DNA: GCGGATCCAGACTGGTGTCCTATCTATAATTTTGCAGTCCACGTTTCTCTTGTGTGTGCCCTAAAGACAAGCTTC,,binds,
05RS10-11 (ssRNA) RNA: GGGGCGGAUCCAGACUGGUGUGAUCAUAUUAAUAAGACGCUUCCAGGUACGUCGCUGUUGGGCCCUAAAGACAAGCUUC,binds,,
05RS10-04 (ssRNA) RNA: GGGGCGGAUCCAGACUGGUGUCAUUUAGCAAAAACACUUGUAUAAUUCAAGUCGAUGUUGGGCCCUAAAGACAAGCUUC,binds,,
05RS10-19 (ssRNA) RNA: GGGGCGGAUCCAGACUGGUGUAAUCGAUCUUGCAUGCUAUUCGUCAAUCAACUCUUGCCGGCCCUAAAGACAAGCUUC,binds,,
05DS10-01 (ssDNA) DNA: GCGGATCCAGACTGGTGTGCACAGCACATGCATTACTGCGGTAATCCGTGTCCTTTGTGCCCTAAAGACAAGCTTC,,binds,
05DS10-02 (= 05DS10-03) (ssDNA) DNA: GCGGATCCAGACTGGTGTACTGGGCTAGTTGCCTCTGCAGATTAGATGATGACAGTGGCCCTAAAGACAAGCTTC,,binds,
05DS10-26 (ssDNA) DNA: GCGGATCCAGACTGGTGTGGGAATGTTGTTTATGTATTTGTTCTGAGCTCTACCTTTGCCCTAAAGACAAGCTTC,,binds,
05DS10-12 (ssDNA) DNA: GCGGATCCAGACTGGTGTGCAGGTATGCCGGATCATGTCGTGAAAGTATCCATTTCTCGCCCTAAAGACAAGCTTC,,binds,
05RS10-09 (ssRNA) RNA: GGGGCGGAUCCAGACUGGUGUACACGGUGUUUAGUAGUUUAAUGAAUCUUUUAGUUCUUGGGCCCUAAAGACAAGCUUC,,,Kd [3]: 24.1 nM
05RS10-32 (ssRNA) RNA: GGGGCGGAUCCAGACUGGUGUCUUCCUGCUUGUGUUAUUUUCUAUUGUCGUGCGUGUUCGGGCCCUAAAGACAAGCUUC,,,binding result [4]: binds
05RS10-32-32P (ssRNA) RNA: GGGGCGGAUCCAGACUGGUGUCUUCCUGCUUGUGUUAUUUUCUAUUGUCGUGCGUGUUCGGGCCCUAAAGACAAGCUUC,,,binding result [5]: binds
05DS10-05 (ssDNA) DNA: GCGGATCCAGACTGGTGTACCTGTTAGCAAGAGTTTATTATGTAAAGATATCCGTTGGGCCCTAAAGACAAGCTTC,,,binding result [6]: binds
05RS10-18 (ssRNA) RNA: GGGGCGGAUCCAGACUGGUGUUUAAUUAUGUAAGUAAAUUGUUUUUUGACUCUCGCAUUGGGCCCUAAAGACAAGCUUC,binds,,
05DS10-21 (ssDNA) DNA: GCGGATCCAGACTGGTGTGGAGGTTAGCCGAAACACGTATACGCGTATTTATCCTCGGGCCCTAAAGACAAGCTTC,,,Kd [7]: 8.4 nM
05DS10-22 (ssDNA) DNA: GCGGATCCAGACTGGTGTCAATGGTACTCTTCATTGTAGTCGCTTTGTTTATTAGCCGGCCCTAAAGACAAGCTTC,,binds,
05RS10-34 (ssRNA) RNA: GGGGCGGAUCCAGACUGGUGUGAACACAGACGAGAACGUUGCAUAAAACCGCUUUUUUGGGCCCUAAAGACAAGCUUC,binds,,

# — publication PMC6480920, “A Combined ELONA-(RT)qPCR Approach for Characterizing DNA and RNA Aptamers Selected against PCBP-2”
